Stoichiometry N data for one substance are collected here from paper PMC10952681.

The assay concerns the target Rhizobium radiobacter MDC 8606 N-carbamoyl-β-alanine amidohydrolase (Rhizobium radiobacter MDC 8606). The assay is described as follows: SEC; Superdex S200 16/60, 50 mM Tris-HCl pH 8.0, 150 mM NaCl; calibrated column; single major peak at 74.4 mL, apparent molecular weight 90 kDa. In general terms: In gel filtration, larger molecules generally elute earlier.

For orientation: stoichiometry N means the number of molecules, sites or subunits per partner or assembly.

As to “Rhizobium radiobacter MDC 8606 N-carbamoyl-β-alanine amidohydrolase (enzyme)”, the stoichiometry N stood at 2.
